Results as given in PMC11736007.

Target: Orai1β-eGFP (UniProt Q96D31)
Assay: co-IP; Orai1-KO MCF7 cells co-transfected with an Orai1 variant and mCherry-SPCA2; lysis in 1% IGEPAL CA-630 buffer pH 8; immunoprecipitation with anti-Orai1 antibody and protein A-agarose at 4 °C overnight; Western blot with anti-mCherry; signal normalised to input and to immunoprecipitated Orai1

Sequence of UniProt Q96D31 (Q96D31 64-301): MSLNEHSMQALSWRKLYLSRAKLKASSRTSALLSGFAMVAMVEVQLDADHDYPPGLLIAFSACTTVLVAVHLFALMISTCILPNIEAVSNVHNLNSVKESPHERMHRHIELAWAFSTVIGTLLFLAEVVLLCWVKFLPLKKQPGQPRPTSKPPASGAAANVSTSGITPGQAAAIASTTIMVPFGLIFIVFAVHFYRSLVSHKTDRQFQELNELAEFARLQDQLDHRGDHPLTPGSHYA

percent decrease of co-precipitated SPCA2 against Orai1α: 63%
B1: mCherry-SPCA2 (natural protein)
chain: MVEGRVSEFLKKLGFSGGGRQYQALEKDEEEALIDEQSELKAIEKEKKVTALPPKEACKCQKEDLARAFCVDLHTGLSEFSVTQRRLAHGWNEFVADNSEPVWKKYLDQFKNPLILLLLGSALVSVLTKEYEDAVSIATAVLVVVTVAFIQEYRSEKSLEELTKLVPPECNCLREGKLQHLLARELVPGDVVSLSIGDRIPADIRLTEVTDLLVDESSFTGEAEPCSKTDSPLTGGGDLTTLSNIVFMGTLVQYGRGQGVVIGTGESSQFGEVFKMMQAEETPKTPLQKSMDRLGKQLTLFSFGIIGLIMLIGWSQGKQLLSMFTIGVSLAVAAIPEGLPIVVMVTLVLGVLRMAKKRVIVKKLPIVETLGCCSVLCSDKTGTLTANEMTVTQLVTSDGLRAEVSGVGYDGQGTVCLLPSKEVIKEFSNVSVGKLVEAGCVANNAVIRKNAVMGQPTEGALMALAMKMDLSDIKNSYIRKKEIPFSSEQKWMAVKCSLKTEDQEDIYFMKGALEEVIRYCTMYNNGGIPLPLTPQQRSFCLQEEKRMGSLGLRVLALASGPELGRLTFLGLVGIIDPPRVGVKEAVQVLSESGVSVKMITGDALETALAIGRNIGLCNGKLQAMSGEEVDSVEKGELADRVGKVSVFFRTSPKHKLKIIKALQESGAIVAMTGDGVNDAVALKSADIGIAMGQTGTDVSKEAANMILVDDDFSAIMNAVEEGKGIFYNIKNFVRFQLSTSISALSLITLSTVFNLPSPLNAMQILWINIIMDGPPAQSLGVEPVDKDAFRQPPRSVRDTILSRALILKILMSAAIIISGTLFIFWKEMPEDRASTPRTTTMTFTCFVFFDLFNALTCRSQTKLIFEIGFLRNHMFLYSVLGSILGQLAVIYIPPLQRVFQTENLGALDLLFLTGLASSVFILSELLKLCEKYCCSPKRVQMHPEDV
